This note sets out measurements from US20220073584A1 (AstraZeneca / MedImmune, published 2022).

Positions count from the first letter of the chain named. Ends that are not written are not given here. Some results are limits rather than exact numbers.

Sequences and labels used below:
B1: recombinant human Relaxin-2 (R&D Systems, catalogue number 6586-RN-025) (ligand)
chain 1: QLYSALANKCCHVGCTKRSLARFC
chain 2: DSWMEEVIKLCGRELVRAQIAICGMSTWS
modifications: not fully specified (bridges); ends and bridges not checked; also: two interchain and one intrachain disulfide bonds, positions not given here
B2: Fc-YTE-TM_hRLX2_15-15AA (Fc fusion)
chain: DKTHTCPPCPAPEFEGGPSVFLFPPKPKDTLYITREPEVTCVVVDVSHEDPEVKFNWYVDGVEVHNAKTKPREEQYNSTYRVVSVLTVLHQDWLNGKEYKCKVSNKALPASIEKTISKAKGQPREPQVYTLPPSRDELTKNQVSLTCLVKGFYPSDIAVEWESNGQPENNYKTTPPVLDSDGSFFLYSKLTVDKSRWQQGNVFSCSVMHEALHNHYTQKSLSLSPGKGGGGSGGGGSGGGGSQLYSALANKCCHVGCTKRSLARFCGGGGSGGGGSGGGGSSWMEEVIKLCGRELVRAQIAICGMSTWS
B3: Fc-YTE-FQQ_hRLX2_15-15AA (Fc fusion)
chain: B2 chain with E15Q, K102Q, S111P
B4: Fc-TMΔTHTΔK_hRLX2_21-15AA (Fc fusion)
chain: GGGSACPPCPAPEFEGGPSVFLFPPKPKDTLMISRTPEVTCVVVDVSHEDPEVKFNWYVDGVEVHNAKTKPREEQYNSTYRVVSVLTVLHQDWLNGKEYKCKVSNKALPASIEKTISKAKGQPREPQVYTLPPSREEMTKNQVSLTCLVKGFYPSDIAVEWESNGQPENNYKTTPPVLDSDGSFFLYSKLTVDKSRWQQGNVFSCSVMHEALHNHYTQKSLSLSPGGGGGSGGGGSGGGGSGGGGGSQLYSALANKCCHVGCTKRSLARFCGGGGSGGGGSGGGGSSWMEEVIKLCGRELVRAQIAICGMSTWS
B5: hRLX2(BA)-Fc-TMΔTHTΔK_15-24AA (Fc fusion)
chain: SWMEEVIKLCGRELVRAQIAICGMSTWSGGGGSGGGGSGGGGSQLYSALANKCCHVGCTKRSLARFCAAAGGGGSGGGGSGGGGSGGGGSACPPCPAPEFEGGPSVFLFPPKPKDTLMISRTPEVTCVVVDVSHEDPEVKFNWYVDGVEVHNAKTKPREEQYNSTYRVVSVLTVLHQDWLNGKEYKCKVSNKALPASIEKTISKAKGQPREPQVYTLPPSREEMTKNQVSLTCLVKGFYPSDIAVEWESNGQPENNYKTTPPVLDSDGSFFLYSKLTVDKSRWQQGNVFSCSVMHEALHNHYTQKSLCLSPG
B6: hRLX2-Fc-TMΔTHTΔK_15-24AA (Fc fusion)
chain: QLYSALANKCCHVGCTKRSLARFCGGGGSGGGGSGGGGSSWMEEVIKLCGRELVRAQIAICGMSTWSAAAGGGGSGGGGSGGGGSGGGGSACPPCPAPEFEGGPSVFLFPPKPKDTLMISRTPEVTCVVVDVSHEDPEVKFNWYVDGVEVHNAKTKPREEQYNSTYRVVSVLTVLHQDWLNGKEYKCKVSNKALPASIEKTISKAKGQPREPQVYTLPPSREEMTKNQVSLTCLVKGFYPSDIAVEWESNGQPENNYKTTPPVLDSDGSFFLYSKLTVDKSRWQQGNVFSCSVMHEALHNHYTQKSLSLSPG
B7: Fc-TMΔTHTΔK_hRLX2(BA)_21-15AA (Fc fusion)
chain: GGGSACPPCPAPEFEGGPSVFLFPPKPKDTLMISRTPEVTCVVVDVSHEDPEVKFNWYVDGVEVHNAKTKPREEQYNSTYRVVSVLTVLHQDWLNGKEYKCKVSNKALPASIEKTISKAKGQPREPQVYTLPPSREEMTKNQVSLTCLVKGFYPSDIAVEWESNGQPENNYKTTPPVLDSDGSFFLYSKLTVDKSRWQQGNVFSCSVMHEALHNHYTQKSLSLSPGGGGGSGGGGSGGGGSGGGGGSSWMEEVIKLCGRELVRAQIAICGMSTWSGGGGSGGGGSGGGGSQLYSALANKCCHVGCTKRSLARFC

human RXFP2, sequence (Q8WXD0 whole entry): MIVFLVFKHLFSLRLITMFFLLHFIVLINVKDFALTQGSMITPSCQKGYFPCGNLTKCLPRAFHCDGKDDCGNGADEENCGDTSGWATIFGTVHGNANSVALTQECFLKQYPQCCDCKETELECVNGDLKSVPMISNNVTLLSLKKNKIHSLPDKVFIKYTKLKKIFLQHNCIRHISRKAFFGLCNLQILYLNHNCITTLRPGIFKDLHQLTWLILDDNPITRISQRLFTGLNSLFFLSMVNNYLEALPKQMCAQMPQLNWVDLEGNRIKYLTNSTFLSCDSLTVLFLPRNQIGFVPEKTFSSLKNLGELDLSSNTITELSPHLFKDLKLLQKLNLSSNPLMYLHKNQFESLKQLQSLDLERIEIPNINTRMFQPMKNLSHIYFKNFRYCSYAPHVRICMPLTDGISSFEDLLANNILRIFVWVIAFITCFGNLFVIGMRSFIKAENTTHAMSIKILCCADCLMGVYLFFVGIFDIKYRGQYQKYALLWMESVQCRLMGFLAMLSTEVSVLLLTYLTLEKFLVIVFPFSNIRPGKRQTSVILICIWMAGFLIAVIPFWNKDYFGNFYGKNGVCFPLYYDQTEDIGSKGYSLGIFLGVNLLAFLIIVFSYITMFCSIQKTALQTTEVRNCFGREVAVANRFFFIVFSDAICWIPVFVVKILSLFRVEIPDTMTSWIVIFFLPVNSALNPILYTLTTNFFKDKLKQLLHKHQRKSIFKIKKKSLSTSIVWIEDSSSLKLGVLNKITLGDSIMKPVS

The target in the first test is T1, human RXFP1 receptor (human, UniProt Q9HBX9 1-757).
T1 sequence (looked up): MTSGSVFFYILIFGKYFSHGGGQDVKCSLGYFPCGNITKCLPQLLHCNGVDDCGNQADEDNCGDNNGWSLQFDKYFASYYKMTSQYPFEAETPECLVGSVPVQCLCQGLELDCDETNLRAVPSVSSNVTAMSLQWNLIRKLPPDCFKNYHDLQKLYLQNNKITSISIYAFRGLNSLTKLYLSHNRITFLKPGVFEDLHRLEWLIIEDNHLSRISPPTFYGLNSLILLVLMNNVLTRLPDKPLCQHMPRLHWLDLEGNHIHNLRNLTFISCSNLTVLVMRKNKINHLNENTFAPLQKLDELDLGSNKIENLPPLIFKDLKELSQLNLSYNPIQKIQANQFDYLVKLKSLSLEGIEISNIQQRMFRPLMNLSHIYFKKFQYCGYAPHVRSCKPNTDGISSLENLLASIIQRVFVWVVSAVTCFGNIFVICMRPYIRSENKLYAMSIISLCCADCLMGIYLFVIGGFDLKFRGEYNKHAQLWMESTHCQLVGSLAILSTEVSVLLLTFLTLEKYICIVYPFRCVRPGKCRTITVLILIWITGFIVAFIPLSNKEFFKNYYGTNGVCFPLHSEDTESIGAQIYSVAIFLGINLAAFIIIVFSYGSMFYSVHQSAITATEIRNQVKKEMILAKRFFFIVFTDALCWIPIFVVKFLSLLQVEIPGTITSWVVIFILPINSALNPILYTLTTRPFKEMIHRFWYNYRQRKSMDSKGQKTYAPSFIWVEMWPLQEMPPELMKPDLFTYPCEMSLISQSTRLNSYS
The test can be described thus: cell-based or functional assay.
Turning to B1, the “EC50 (M), stimulation of cAMP production (HitHunter cAMP assay) in CHO-K1 RXFP1 Gs cells” value (“EC50 (M), stimulation of cAMP production” below) is 1.06e-10 M.

B2: the “EC50 (M), stimulation of cAMP production” value stood at 5.39e-09 M.

Take B3: the “EC50 (M), stimulation of cAMP production” value was 4.56e-09 M.

The next test concerns the target T2, mouse RXFP1 receptor (mouse, UniProt Q6R6I7 1-758).
T2 sequence (looked up): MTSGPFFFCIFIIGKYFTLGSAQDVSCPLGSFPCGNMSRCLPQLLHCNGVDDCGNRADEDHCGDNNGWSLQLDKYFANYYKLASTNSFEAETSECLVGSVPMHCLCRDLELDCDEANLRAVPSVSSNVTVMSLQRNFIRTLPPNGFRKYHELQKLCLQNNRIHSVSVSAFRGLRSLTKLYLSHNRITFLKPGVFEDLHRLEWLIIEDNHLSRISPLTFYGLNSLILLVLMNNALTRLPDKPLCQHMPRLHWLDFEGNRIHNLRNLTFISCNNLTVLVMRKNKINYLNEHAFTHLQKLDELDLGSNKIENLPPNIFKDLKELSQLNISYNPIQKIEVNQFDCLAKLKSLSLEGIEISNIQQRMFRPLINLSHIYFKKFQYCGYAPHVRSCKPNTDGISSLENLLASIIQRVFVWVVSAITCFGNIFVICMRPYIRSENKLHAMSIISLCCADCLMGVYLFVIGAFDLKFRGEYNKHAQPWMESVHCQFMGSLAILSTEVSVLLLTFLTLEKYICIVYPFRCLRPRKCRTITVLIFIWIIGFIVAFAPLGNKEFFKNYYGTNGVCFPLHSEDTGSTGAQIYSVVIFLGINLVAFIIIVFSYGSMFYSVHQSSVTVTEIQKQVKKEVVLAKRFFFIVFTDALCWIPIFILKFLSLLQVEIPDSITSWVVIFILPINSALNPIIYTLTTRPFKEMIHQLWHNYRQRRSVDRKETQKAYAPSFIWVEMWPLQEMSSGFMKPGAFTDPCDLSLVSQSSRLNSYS
The test can be described thus: cell-based or functional assay.
Take B1: the “mRXFP1 EC50 (M), cAMP HTRF assay in CHO-K1 mRXFP1 Gs cells” value (“mRXFP1 EC50 (M), cAMP HTRF assay” below) was 6.68e-11 M.

As to B4, the “mRXFP1 EC50 (M), cAMP HTRF assay” value was found to be 2.52e-09 M.

As to B5, the “mRXFP1 EC50 (M), cAMP HTRF assay” value was found to be 8.78e-10 M.

As for B6, the “mRXFP1 EC50 (M), cAMP HTRF assay” value is 2.23e-09 M.

For B7, the “mRXFP1 EC50 (M), cAMP HTRF assay” value turned out to be 8.82e-09 M.

Another test addresses human RXFP2 (human, UniProt Q8WXD0 1-754). The test can be described thus: cell-based or functional assay.
Regarding B1, the “hRXFP2 EC50 (M), cAMP HTRF assay in CHO-K1 RXFP2 Gs cells” value (from here on “hRXFP2 EC50 (M), cAMP HTRF assay”) was 1.46e-07 M.

For the molecule B4, the “hRXFP2 EC50 (M), cAMP HTRF assay” value was greater than 6.78e-06 M.

For B5, the “hRXFP2 EC50 (M), cAMP HTRF assay” value was greater than 4.33e-06 M.

B6: the “hRXFP2 EC50 (M), cAMP HTRF assay” value was greater than 3.09e-07 M.

As to B7, the “hRXFP2 EC50 (M), cAMP HTRF assay” value was greater than 8.22e-06 M.

In a further test the target is T1, human RXFP1 receptor. The test can be described thus: cell-based or functional assay. This is another data set of the same source.
Regarding B1, the “hRXFP1 EC50 (M), cAMP HTRF assay in CHO-K1 RXFP1 Gs cells” value (shortened to “hRXFP1 EC50 (M), cAMP HTRF assay”) came to 1.38e-10 M.

In the case of B4, the “hRXFP1 EC50 (M), cAMP HTRF assay” value was determined as 2.6e-09 M.

For B5, the “hRXFP1 EC50 (M), cAMP HTRF assay” value amounted to 1.13e-09 M.

Turning to B6, the “hRXFP1 EC50 (M), cAMP HTRF assay” value came out at 4.97e-09 M.

B7: the “hRXFP1 EC50 (M), cAMP HTRF assay” value was determined as 1.56e-08 M.
